Assay [1] addresses human Kv1.3 (hKv1.3) channel (human, UniProt P22001 1-575). Briefly: cell-based or functional assay.
For another assay, the target named is T1, Kv1.5 (UniProt P22460 1-613).
T1 construct: whole, on cells
The assay is described as follows: planar patch clamp (Port-A-Patch), channel expressed in cells. (In general: In patch-clamp work, channel activity is measured electrically.)

T1 sequence (P22460 whole entry): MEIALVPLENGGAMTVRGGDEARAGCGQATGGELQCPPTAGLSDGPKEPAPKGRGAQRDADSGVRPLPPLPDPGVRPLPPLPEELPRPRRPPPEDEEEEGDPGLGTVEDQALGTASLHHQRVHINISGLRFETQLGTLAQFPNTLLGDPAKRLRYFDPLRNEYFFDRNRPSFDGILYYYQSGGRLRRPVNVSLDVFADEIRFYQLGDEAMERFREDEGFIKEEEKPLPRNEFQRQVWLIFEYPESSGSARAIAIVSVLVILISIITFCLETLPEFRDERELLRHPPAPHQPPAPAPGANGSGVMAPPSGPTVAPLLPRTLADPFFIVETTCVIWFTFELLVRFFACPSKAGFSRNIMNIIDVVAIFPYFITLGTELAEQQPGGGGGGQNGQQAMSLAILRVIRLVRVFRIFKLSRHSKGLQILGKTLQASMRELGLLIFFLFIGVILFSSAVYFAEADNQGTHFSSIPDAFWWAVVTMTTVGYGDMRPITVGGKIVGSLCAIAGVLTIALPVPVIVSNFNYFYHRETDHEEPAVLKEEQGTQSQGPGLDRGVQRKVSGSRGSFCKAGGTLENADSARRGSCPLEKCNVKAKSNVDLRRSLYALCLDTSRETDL
human Kv1.3 (hKv1.3) channel, sequence (P22001 whole entry): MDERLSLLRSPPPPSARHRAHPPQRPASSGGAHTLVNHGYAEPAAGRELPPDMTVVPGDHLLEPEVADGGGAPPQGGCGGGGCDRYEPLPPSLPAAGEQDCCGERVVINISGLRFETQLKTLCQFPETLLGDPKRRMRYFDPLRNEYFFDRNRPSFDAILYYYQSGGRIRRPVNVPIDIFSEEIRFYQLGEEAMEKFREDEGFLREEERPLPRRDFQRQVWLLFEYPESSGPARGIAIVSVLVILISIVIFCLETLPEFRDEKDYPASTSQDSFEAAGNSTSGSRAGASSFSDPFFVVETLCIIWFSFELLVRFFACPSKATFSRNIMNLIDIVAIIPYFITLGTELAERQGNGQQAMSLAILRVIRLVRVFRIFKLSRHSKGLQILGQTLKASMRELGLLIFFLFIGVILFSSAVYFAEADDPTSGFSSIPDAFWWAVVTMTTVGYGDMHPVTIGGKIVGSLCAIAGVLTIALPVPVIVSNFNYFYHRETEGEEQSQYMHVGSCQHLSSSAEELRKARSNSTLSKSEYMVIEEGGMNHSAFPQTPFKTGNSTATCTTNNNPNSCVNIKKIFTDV

As for ASCRTPKDCADPCRKETGCPYGKCMNRKCKCNRC (also called toxin HsTx 1) [HsTx 1], in assay [1], the “selectivity for Kv1.3 vs. Kv1.1 (patch clamp IC50s)” value is roughly 450 fold. The binding result with Kv1.5 is on record as “no binding”.
